T1: Stt3 (S. cerevisiae, UniProt P39007 1-718, N-glycan at Asn539)
T1 sequence (looked up): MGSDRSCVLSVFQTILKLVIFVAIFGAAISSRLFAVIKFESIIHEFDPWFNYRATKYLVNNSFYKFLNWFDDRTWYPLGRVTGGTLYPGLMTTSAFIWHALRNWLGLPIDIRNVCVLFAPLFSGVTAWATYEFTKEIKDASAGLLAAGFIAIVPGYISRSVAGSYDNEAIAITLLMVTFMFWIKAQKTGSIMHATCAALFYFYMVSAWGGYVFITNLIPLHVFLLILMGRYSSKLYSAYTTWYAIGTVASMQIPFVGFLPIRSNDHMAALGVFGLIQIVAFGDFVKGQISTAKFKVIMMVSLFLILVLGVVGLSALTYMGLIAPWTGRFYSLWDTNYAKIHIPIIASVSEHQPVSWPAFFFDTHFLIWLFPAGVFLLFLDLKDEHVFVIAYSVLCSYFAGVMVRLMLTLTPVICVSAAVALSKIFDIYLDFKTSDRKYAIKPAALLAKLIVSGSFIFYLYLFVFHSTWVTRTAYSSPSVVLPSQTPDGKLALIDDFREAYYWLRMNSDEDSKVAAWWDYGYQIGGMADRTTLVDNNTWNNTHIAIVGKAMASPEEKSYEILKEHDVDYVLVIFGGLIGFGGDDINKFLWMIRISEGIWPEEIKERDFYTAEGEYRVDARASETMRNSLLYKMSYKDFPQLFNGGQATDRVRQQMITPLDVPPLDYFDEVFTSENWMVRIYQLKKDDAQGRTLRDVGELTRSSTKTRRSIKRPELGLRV

B1: Swp1 (natural protein, S. cerevisiae, UniProt Q02795 20-286, looked up)
chain: YVAQDVHVSFPSTAGKSRVMIGKVEPRIGIDETVPTTITVEDPNEVIQVNFAIESTNKPFQNTLLIGLPNKNLEMAFEPEIKDNGKLSMYKYRIDLAKLDAALLQEASRSPEPIKATLILASSTAKPKENLFREILQLNLNFDVDHSDSSLVDKFGIKPEIHHIFHAEPKRVAKPIAVIFVLIIFITILSLIVTWLNSCAAAFNNIPTGVTAVYFLGFIATIVGFEVIFARYYLGTSIFETLFSSLYLGAPGLLTSTKFLRSFGQTI
B2: Wbp1 (natural protein, S. cerevisiae, UniProt P33767 21-430, looked up)
chain: TQTSRTLVLYDQSTEPLEEYSVYLKDLEQRNYKLEYLDINSTSTTVDLYDKEQRLFDNIIVFPTKGGKNLARQIPVKQLIKFFENEGNILCMSSPGAVPNTIRLFLNELGIYPSPKGHVIRDYFSPSSEELVVSSNHLLNKYVYNARKSEDFVFGESSAALLENREQIVPILNAPRTSFTESKGKCNSWTSGSQGFLVVGFQNLNNARLVWIGSSDFLKNKNQDSNQEFAKELLKWTFNEKSVIKSVHAVHSHADGTSYDEEPYKIKDKVIYSVGFSEWNGEEWLPHIADDIQFELRQVDPYYRLTLSPSGNDSETQYYTTGEFILPDRHGVFTFLTDYRKIGLSFTTDKDVKAIRHLANDEYPRSWEISNSWVYISAICGVIVAWIFFVVSFVTTSSVGKKLETFKKTN
modifications: N-glycan at Asn60
B3: Ost1 (natural protein, S. cerevisiae, UniProt P41543 23-476, looked up)
chain: AQYEPPATWENVDYKRTIDVSNAYISETIEITIKNIASEPATEYFTAFESGIFSKVSFFSAYFTNEATFLNSQLLANSTTAPGDDGESEIRYGIIQFPNAISPQEEVSLVIKSFYNTVGIPYPEHVGMSEEQHLLWETNRLPLSAYDTKKASFTLIGSSSFEEYHPPNDESLLGKANGNSFEFGPWEDIPRFSSNETLAIVYSHNAPLNQVVNLRRDIWLSHWASTIQFEEYYELTNKAAKLSKGFSRLELMKQIQTQNMRQTHFVTVLDMLLPEGATDHYFTDLVGLVSTSHAERDHFFIRPRFPIFGGWNYNFTVGWTNKLSDFLHVSSGSDEKFVASIPILNGPPDTVYDNVELSVFLPEGAEIFDIDSPVPFTNVSIETQKSYFDLNKGHVKLTFSYRNLISQVANGQVLIKYDYPKSSFFKKPLSIACYIFTALMGVFVLKTLNMNVTN
modifications: N-glycan at Asn336

What was measured:
Test in all cases: cryo-EM structure
Stt3 = target: T1, Stt3
Wbp1 = target: B2
Ost1 = target: B3
Swp1 = target: B1

| binding result (Stt3) | binding result (Wbp1) | binding result (Ost1) | binding result (Swp1) | Binder |
| --- | --- | --- | --- | --- |
| binds | – | – | – | Ost3 (natural protein, S. cerevisiae, UniProt P48439 23-350, looked up) MSSNRLLKLANKSPKKIIPLKDSSFENILAPPHENAYIVALFTATAPEIGCSLCLELESEYDTIVASWFDDHPDAKSSNSDTSIFFTKVNLEDPSKTIPKAFQFFQLNNVPRLFIFKPNSPSILDHSVISISTDTGSERMKQIIQAIKQFSQVNDFSLHLPMDWTPIITSTIITFITVLLFKKQSKLMFSIISSRIIWATLSTFFIICMISAYMFNQIRNTQLAGVGPKGEVMYFLPNEFQHQFAIETQVMVLIYGTLAALVVVLVKGIQFLRSHLYPETKKAYFIDAILASFCALFIYVFFAALTTVFTIKSPAYPFPLLRLSAPFK |
| binds | binds | – | – | B1 |
| binds | – | – | – | B2 |
| – | – | binds | – | Ost5 (natural protein, S. cerevisiae, UniProt Q92316 1-86, looked up) MTYEQLYKEFHSSKSFQPFIHLDTQPKFAICGLIVTLAVLSSALFAVGSKSSYIKKLFFYTILSVIGSLFAGLTTVFASNSFGVYV |
| binds | – | – | – | B3 |
| binds | binds | – | binds | Ost2 (natural protein, S. cerevisiae, UniProt P46964 1-130, looked up) MAKAPKANTPKVTSTSSAVLTDFQETFKTSKRAYFAQIEKYPKLKLIDTFCFFLVLLGVIQCTFIILIRDNFPFNAFLAGFIICVGQFVLLMSLRLQLCNSFPGISKNRAFAEFIVASLILHFVCLHFIN |
| binds | – | – | – | MISDEQLNSLAITFGIVMMTLIVIYHAVDSTMSPKN (natural protein, S. cerevisiae) [Ost4-FLAG] |

— publication PMC6112861 (Nature, 2018)
